Source: paper PMC8660890

Target: recombinant β subunit of human MUC4 mucin (rMUC4β) (human)
Assay: native gel or EMSA; Blue Native PAGE of purified rMUC4β following thermal denaturation, non-reducing conditions; western blot with anti-His tag mAb

- stoichiometry N: 2
Substance: recombinant β subunit of human MUC4 mucin (rMUC4β) (domain or fragment)
